Reference: article PMC12559092 (2025)
Blank lines part the entries; values can stand above or below the binder they belong to.

Target: T1, VEGFR-2-Fc domain 1&2&3 (Homo sapiens, UniProt P35968)
T1 chain: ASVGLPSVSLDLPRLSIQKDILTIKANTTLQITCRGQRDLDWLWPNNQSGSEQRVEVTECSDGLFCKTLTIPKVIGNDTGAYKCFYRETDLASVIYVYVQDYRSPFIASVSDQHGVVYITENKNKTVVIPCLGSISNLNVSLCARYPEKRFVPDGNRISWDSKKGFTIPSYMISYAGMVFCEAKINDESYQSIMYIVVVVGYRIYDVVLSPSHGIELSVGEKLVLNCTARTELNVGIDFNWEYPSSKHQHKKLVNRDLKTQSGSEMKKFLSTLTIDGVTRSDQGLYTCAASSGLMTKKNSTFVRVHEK
Assay: biolayer interferometry

Kd: 0.0035 µM
B1: VEGF-165 (protein)
chain: MTDRQTDTAPSPSYHLLPGRRRTVDAAASRGQGPEPAPGGGVEGVGARGVALKLFVQLLGCSRFGGAVVRAGEAEPSGAARSASSGREEPQPEEGEEEEEKEEERGPQWRLGARKPGSWTGEAAVCADSAPAARAPQALARASGRGGRVARRGAEESGPPHSPSRRGSASRAGPGRASETMNFLLSWVHWSLALLLYLHHAKWSQAAPMAEGGGQNHHEVVKFMDVYQRSYCHPIETLVDIFQEYPDEIEYIFKPSCVPLMRCGGCCNDEGLECVPTEESNITMQIMRIKPHQGQHIGEMSFLQHNKCECRPKKDRARQEKKSVRGKGKGQKRKRKKSRYKSWSVPCGPCSERRKHLFVQDPQTCKCSCKNTDSRCKARQLELNERTCRCDKPRR

Kd: ~124 µM
Binder: Ac-ESNITMQIMRIKPHQGQHIGEMSFLQHMK-NH2 [VEGF73-101]
